Source: publication PMC9104182

Biological target: photoconvertible fluorescent protein DendFP (Dendronephthya sp)
Test: crystal structure; native DendFP crystals, hanging drop at 22 °C, 100 mM Tris-HCl pH 7.5, 0.2 M MgCl2, 20% PEG4000; eight molecules (two tetramers) in the asymmetric unit; interfaces analysed with PISA

- stoichiometry N: 4
Substance: photoconvertible fluorescent protein DendFP (natural protein)
